The assay has as its target human ROR1 extracellular domain-Fc fusion (human) (UniProt Q01973). Put plainly: SPR, hROR1 ECD-Fc on chip.

Positions count from the first letter of the chain named.

B1: D3 ADV1 dimer (VNAR, part only; not given: Linker between the domains, not shown: small tags and cut ends)
chain, part: ASVNQSPSSLSASVGDRVTITCVLTDTSYGLYSTSWFRKNPGTTDWERMSIGGRYSESVNKGAKSFTLTISSLQPEDSATYYCKAQSGMAISTGSGHGYNWYDGAGTKVEIKASVNQSPSSLSASVGDRVTITCVLTDTSYGLYSTSWFRKNPGTTDWERMSIGGRYSESVNKGAKSFTLTISSLQPEDSATYYCKAQSGMAISTGSGHGYNWYDGAGTKVEIKQASGAHHHHHHGAEFEQKLISEEDLG
In the case of B1, the Kd was determined as 0.00892 µM, the koff was 0.00567 s⁻¹ and the kon worked out at 636000 M⁻¹ s⁻¹.

B2: D3 ADV2 dimer (VNAR, part only; not given: Linker between the domains, not shown: small tags and cut ends)
chain, part: B1 chain, part with A1T, S2R, N4D, A113T, S114R, N116D
Molecule B2 had a Kd of 0.0262 µM, a koff of 0.016 s⁻¹ and a kon of 609000 M⁻¹ s⁻¹.

The values above are taken from US20210317204A1.
